Assay results: publication PMC6262623, “The Intermolecular Interaction of Ephexin4 Leads to Autoinhibition by Impeding Binding of RhoG” (Cells, 2018)
Where a chain is given by its changes, count along the chain named.

What was measured:
[1] = biological target: T1, FLAG-tagged wild-type Ephexin4 (murine, UniProt Q3U5C8 1-713); experiment: cell-based or functional assay
T1 sequence (looked up): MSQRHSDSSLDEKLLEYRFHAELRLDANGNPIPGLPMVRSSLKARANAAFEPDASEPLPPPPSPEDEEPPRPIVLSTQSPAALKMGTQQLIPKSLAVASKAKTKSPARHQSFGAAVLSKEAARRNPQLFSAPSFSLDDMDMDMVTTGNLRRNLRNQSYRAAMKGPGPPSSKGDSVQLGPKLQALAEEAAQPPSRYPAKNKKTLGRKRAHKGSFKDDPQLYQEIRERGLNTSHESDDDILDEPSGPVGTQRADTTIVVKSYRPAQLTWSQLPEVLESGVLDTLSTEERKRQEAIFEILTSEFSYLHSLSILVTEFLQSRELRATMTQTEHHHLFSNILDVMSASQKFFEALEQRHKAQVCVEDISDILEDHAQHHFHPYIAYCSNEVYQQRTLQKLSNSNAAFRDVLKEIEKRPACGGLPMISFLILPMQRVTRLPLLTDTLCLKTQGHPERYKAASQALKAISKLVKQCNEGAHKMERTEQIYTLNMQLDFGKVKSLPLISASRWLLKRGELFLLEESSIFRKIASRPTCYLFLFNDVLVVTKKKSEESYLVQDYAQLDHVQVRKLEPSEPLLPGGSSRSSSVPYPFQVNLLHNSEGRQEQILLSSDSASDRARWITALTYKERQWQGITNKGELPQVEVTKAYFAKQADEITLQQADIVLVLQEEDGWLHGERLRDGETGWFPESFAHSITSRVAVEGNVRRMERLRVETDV

[2] = biological target: T2, FLAG-tagged Ephexin4^E295A (murine, UniProt Q3U5C8 1-713, E295A); experiment: cell-based or functional assay
T2 sequence (looked up): T1 sequence (looked up) with E295A

B1: GFP-RhoG (natural protein)
chain: not shown
Question: What does the source list for B1?
Answer: level of active (GTP-bound) RhoG precipitated by GST-Elmo2^N-term from 293T cells expressing wild-type Ephexin4, against control cells (Figure 3a,b) [1]: 1.6 fold; level of active endogenous RhoG (293T) precipitated by GST-Elmo2^N-term from cells expressing wild-type Ephexin4 (Figure 3c,d) [1]: 1.6 fold; level of active (GTP-bound) RhoG precipitated by GST-Elmo2^N-term from 293T cells expressing Ephexin4^E295A, against control cells (Figure 3a,b) [2]: 2.9 fold; level of active endogenous RhoG (293T) precipitated by GST-Elmo2^N-term from cells expressing Ephexin4^E295A (Figure 3c,d) [2]: 2.6 fold
